Assay results: publication PMC4338599

Legend:
Test in all cases: SPR
[1] = biological target: Ku70-Ku80 heterodimer (Ku);PAXX WT (PAXX1-204, C9orf142) (human?;human) (UniProt P12956+P13010+Q9BUH6)
[2] = biological target: Ku70-Ku80 heterodimer (Ku);PAXX V199A/F201A V199A;F201A (human?;human) (UniProt P12956+P13010+Q9BUH6)
[3] = biological target: Ku70-Ku80 heterodimer (Ku) (UniProt P12956+P13010)
Ku70-Ku80 heterodimer (Ku), sequence (P12956 whole entry, chain 1 of 2): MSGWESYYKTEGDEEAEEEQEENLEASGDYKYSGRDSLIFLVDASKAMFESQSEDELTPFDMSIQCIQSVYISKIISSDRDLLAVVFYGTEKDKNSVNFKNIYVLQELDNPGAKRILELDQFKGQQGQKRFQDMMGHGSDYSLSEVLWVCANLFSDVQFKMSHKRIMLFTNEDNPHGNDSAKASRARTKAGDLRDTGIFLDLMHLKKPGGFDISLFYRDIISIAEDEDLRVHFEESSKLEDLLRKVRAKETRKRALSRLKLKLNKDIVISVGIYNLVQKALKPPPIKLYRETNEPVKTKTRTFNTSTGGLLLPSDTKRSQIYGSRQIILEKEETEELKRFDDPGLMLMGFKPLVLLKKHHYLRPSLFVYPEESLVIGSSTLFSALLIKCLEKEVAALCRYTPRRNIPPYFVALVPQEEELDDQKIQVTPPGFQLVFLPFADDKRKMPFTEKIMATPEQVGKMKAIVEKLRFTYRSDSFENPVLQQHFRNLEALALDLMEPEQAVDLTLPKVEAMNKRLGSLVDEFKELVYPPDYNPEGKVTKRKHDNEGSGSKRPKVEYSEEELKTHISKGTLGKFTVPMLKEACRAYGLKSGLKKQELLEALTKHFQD
Ku70-Ku80 heterodimer (Ku), sequence (P13010 whole entry, chain 2 of 2): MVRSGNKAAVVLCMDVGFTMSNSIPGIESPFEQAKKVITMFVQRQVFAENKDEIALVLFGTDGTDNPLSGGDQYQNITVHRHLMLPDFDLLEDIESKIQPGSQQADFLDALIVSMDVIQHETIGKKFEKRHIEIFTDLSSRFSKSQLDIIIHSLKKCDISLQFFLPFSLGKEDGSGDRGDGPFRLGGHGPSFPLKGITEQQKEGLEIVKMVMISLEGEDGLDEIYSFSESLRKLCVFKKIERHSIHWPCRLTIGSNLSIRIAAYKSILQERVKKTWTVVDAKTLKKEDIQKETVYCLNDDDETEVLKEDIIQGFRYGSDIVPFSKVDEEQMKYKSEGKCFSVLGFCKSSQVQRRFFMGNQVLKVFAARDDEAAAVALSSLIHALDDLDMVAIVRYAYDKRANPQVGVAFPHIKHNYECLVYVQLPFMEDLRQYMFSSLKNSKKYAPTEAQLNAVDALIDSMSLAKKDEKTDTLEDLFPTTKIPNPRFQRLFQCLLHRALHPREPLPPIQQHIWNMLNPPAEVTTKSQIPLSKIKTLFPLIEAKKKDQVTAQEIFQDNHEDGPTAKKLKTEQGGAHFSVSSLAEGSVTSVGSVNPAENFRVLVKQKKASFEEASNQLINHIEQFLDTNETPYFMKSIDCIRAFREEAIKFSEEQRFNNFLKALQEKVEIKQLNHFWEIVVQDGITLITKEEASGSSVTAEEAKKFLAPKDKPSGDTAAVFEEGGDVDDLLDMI

Ku70-Ku80 heterodimer (Ku);PAXX WT (PAXX1-204, C9orf142) (human?;human), sequence (P12956 whole entry, chain 1 of 3): as the sequence (P12956 whole entry, chain 1 of 2) above
Ku70-Ku80 heterodimer (Ku);PAXX WT (PAXX1-204, C9orf142) (human?;human), sequence (P13010 whole entry, chain 2 of 3): as the sequence (P13010 whole entry, chain 2 of 2) above
Ku70-Ku80 heterodimer (Ku);PAXX WT (PAXX1-204, C9orf142) (human?;human), sequence (Q9BUH6 whole entry, chain 3 of 3): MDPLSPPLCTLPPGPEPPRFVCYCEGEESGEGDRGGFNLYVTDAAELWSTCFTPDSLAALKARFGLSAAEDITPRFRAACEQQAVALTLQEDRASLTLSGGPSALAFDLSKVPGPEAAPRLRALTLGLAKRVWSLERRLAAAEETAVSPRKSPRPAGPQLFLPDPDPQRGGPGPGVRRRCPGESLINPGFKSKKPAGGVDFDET
Ku70-Ku80 heterodimer (Ku);PAXX V199A/F201A V199A;F201A (human?;human), sequence (P12956 whole entry, chain 1 of 3): as the sequence (P12956 whole entry, chain 1 of 2) above
Ku70-Ku80 heterodimer (Ku);PAXX V199A/F201A V199A;F201A (human?;human), sequence (P13010 whole entry, chain 2 of 3): as the sequence (P13010 whole entry, chain 2 of 2) above
Ku70-Ku80 heterodimer (Ku);PAXX V199A/F201A V199A;F201A (human?;human), sequence (Q9BUH6 whole entry V199A/F201A, chain 3 of 3): as the sequence (Q9BUH6 whole entry, chain 3 of 3) above, with V199A, F201A counted along it

For “ATATATCCATGGCTGCCTCACAAACTTCACAAACTGTTGCATCTCACGTTCCTTTTGCAGATTTGTGTTCAACTTTAGAACGAATACAGAAAAGTAAAGGACGTGCA (double strand) [107-bp biotinylated LIG4 PCR fragment]”, the binding [1] was “binds”, the binding [2] was “no binding” and the binding [3] was “binds”.
